According to US12016910B2, “Antigenic peptides for prevention and treatment of cancer” (ENTEROME S.A., priority 2018, dated 2024):

Assays:
HLA-A*0201 = target: T1, HLA-A*0201 (Homo sapiens, UniProt P04439, D140Y/D185E/D98H/E176V/E277Q/G131W/G231S/I119V/I121R/I166T/I218V/L300P/L318F/N151K/N90K/P208A/P217A/Q86G/Q94H/R138H/R169H/T345S); assay: Affinity of the peptide to T2 cell line: HLA-A2 labelling by FACS, relative to HIV pol 589-597; type: binding; conditions: for binding affinity to HLA-A*0201 compared with the other peptides tested (in words): Examples 2, 7, 8, 9
T1 construct: the human tumoral cell T2 which expresses the HLA-A*0201 molecule; endogenous in cells; host or cells: T2 cells (human, TAP1/2 negative)
Text: The experimental protocol is similar to the one that was validated for peptides presented by the HLA-A*0201 (Tourdot et al., A general strategy to enhance immunogenicity of low-affinity HLA-A2.1-associated peptides: implication in the identification of cryptic tumor epitopes. Eur J Immunol. 2000 December; 30(12):3411-21). Affinity measurement of the peptides is achieved with the human tumoral cell T2 which expresses the HLA-A*0201 molecule, but which is TAP1/2 negative and incapable of presenting endogenous peptides.
T2 cells (2.10^5 cells per well) are incubated with decreasing concentrations of peptides from 100 μM to 1.5625 μM in a AIMV medium supplemented with 100 ng/μl of human β2m at 37° C. for 16 hours. Cells are then washed two times and marked with the anti-HLA-A2 antibody coupled to PE (clone BB7.2, BD Pharmagen).
The analysis is achieved by FACS (Guava Easy Cyte).
A2. Solubilisation of Peptides
Each peptide is solubilized by taking into account the amino acid composition. […] Other peptides are resuspended in water or PBS pH7.4.
The experimental protocol, materials and methods correspond to those outlined in Example 2, with the only difference that the above mentioned (poly)peptides were used.

[1] = test system: T cell responses (IFNγ-producing splenocytes); assay: ELISPOT-IFNγ assay on splenocytes of vaccinated HLA-A2 humanized mice; type: in vivo, HLA-A2 (CB6F1-Tg(HLA-A*0201/H2-Kb)A*0201) mice; conditions: 100 μg vacc-pAg + 150 μg T13L + IFA s.c. d0 and d14; splenocytes d21 restimulated with vacc-pAg 10 μM
Text: Briefly, HLA-A2 humanized mice (HLA-A2 (CB6F1-Tg(HLA-A*0201/H2-Kb)A*0201) were assigned randomly (based on mouse sex and age) to experimental groups, wherein each group was immunized with a specific vaccination peptide (vacc-pAg) combined to a common helper peptide (h-pAg T13L; sequence: […]; SEQ ID NO: 860; Bhasin M, Singh H, Raghava GP (2003) MHCBN: a comprehensive database of MHC binding and non-binding peptides. Bioinformatics 19: 665-666) (as outlined in Table 5 below). The vacc-pAg were compared in couples (group 1 vs. group 2, group 1 vs. group 3; group 1 vs. group 4; group 5 vs. group 6; group 7 vs. group 8; group 9 vs. group 10). Thereby, both native and optimized versions of a single peptide were compared in each wave.
The peptides were provided as follows: • vacc-pAg: BIRC5-H, BIRC5-B1, BIRC5-B2, BIRC5-B3, FOXM1-H2, FOXM1-B2, EZH2-H2, EZH2-B2, 1L13RA2-H and IL13RA2-B; all produced and provided at a 4 mg/ml (4 mM) concentration; • h-pAg: T13L; Eurogentec batch 1713334 re-suspended in pure distilled water at a 10 mg/mL concentration
The animals were immunized on day 0 (d0) with a prime injection, and on d14 with a boost injection. Each mouse was injected s.c. at tail base with 100 μL of an oil-based emulsion that contained: • 100 μg of vacc-pAg (25 μL of 4 mg/mL stock per mouse); • 150 μg of h-pAg (15 μL of 10 mg/mL stock per mouse); • 10 μL of PBS to reach a total volume of 50 μL (per mouse); • Incomplete Freund's Adjuvant (IFA) added at 1:1 (v:v) ratio (50 μL per mouse).
A separate emulsion was prepared for each vacc-pAg, as follows: IFA reagent was added to the vacc-pAg/h-pAg/PBS mixture in a 15 mL tube and mixed on vortex for repeated cycles of 1 min until forming a thick emulsion.
Seven days after the boost injection (i.e. on d21), the animals were euthanized and the spleen was harvested. Splenocytes were prepared by mechanical disruption of the organ followed by 70 μm-filtering and Ficoll density gradient purification.
The splenocytes were immediately used in an ELISPOT-IFNγ assay (Table 6). Experimental conditions were repeated in triplicates, using 2*10^5 total splenocytes per well, and were cultured in presence of vacc-pAg (10 μM), lonomycin (0.1 μM) plus PMA (1 μM) or medium-only to assess for their capacity to secrete IFNγ. The commercial ELISPOT-IFNγ kit (Diaclone Kit Mujrine IFNγ ELISpot) was used following the manufacturer's instructions, and the assay was performed after about 19 h of incubation.
Spots were counted on a CTL ELISpot reader. Data plotting and statistical analysis were performed with the Prism-5 software (GraphPad Software Inc.).
The data were then normalized as a number of specific spots (the average counts obtained in the ‘medium only’ condition being subtracted) per 50*10^3 total T cells.
The individual average values (obtained from the triplicates) were next used to plot the group average values. As the functional capacity of T cells might vary from individual to individual, the data were also expressed as the percentage of the ionomycin plus PMA response per individual (see FIG. 8).

| Substance | Concentration of peptide that induces 20% of HLA-A2 expression (HLA-A*0201; Example 2, Table 4) [µM] | T cell responses in the ELISPOT-IFNγ assay compared to the respective human reference epitope [1] | Concentration of peptide that induces 20% of HLA-A2 expression (HLA-A*0201; Example 8, Table 8) [µM] | binding affinity to HLA-A*0201 compared with the other peptides tested (in words) (HLA-A*0201) |
| --- | --- | --- | --- | --- |
| RVSSYLVPI (listed as Homo sapiens) [FOXM1-H, reference compound] | 37.6 | – | – | – |
| FLVEDETVI [EZH2-B] | 8.8 | – | – | – |
| FLDSLGFSL [TYMS B2] | 2.7 | – | – | – |
| SMFRVLIGT (listed as Homo sapiens) [EZH2-H2, reference compound] | 39.2 | – | – | – |
| YTLGEFLYI [BIRC5-B2] | 14.7 | improved T cell responses | – | – |
| ILDEAYVRV [EGFR-B] | 3.1 | – | – | – |
| VLEELLWFI (listed as Homo sapiens) [TYMS H, reference compound] | 4.1 | – | – | – |
| 1A9V: comparative peptide (Eguchi et al., 2006): SEQ ID NO: 691 with tryptophan 1 substituted by alanine, isoleucine 9 by valine (ALPFGFILV; comparative peptide) [reference compound] | – | – | 36.5 | lowest affinity of the peptides tested |
| RLSSYLVEI [FOXM1-B] | 46.7 | – | – | – |
| AVFRVLIPV [EZH2-B2] | 8.3 | improved T cell responses | – | – |
| LLLSAALSV [CHI3L1 B] | 3.6 | – | – | – |
| FLPFGFILV [IL13RA2-B] | 2.9 | improved T cell responses | 2.9 | considerably higher binding affinity |
